By Km is commonly meant the concentration of substrate that gives half-maximal velocity. Broadly, the Vmax is the rate approached at saturating substrate. For orientation: kcat means the maximal rate divided by the concentration of active sites. The kcat/Km is the turnover number divided by the Michaelis constant. What is called stoichiometry N is the number of molecules, sites or subunits per partner or assembly.

The test system of data set [1] is CC(C)(COP(=O)(O)OP(=O)(O)OC[C@H]1O[C@@H](n2cnc3c(N)ncnc32)[C@H](O)[C@@H]1OP(=O)(O)O)[C@@H](O)C(=O)NCCC(=O)NCCSC(=O)c1ccccc1. Briefly: purified protein. As to conditions: 4 mM NADPH, 50 mM Bis-Tris pH 6.5, 28 °C, α:β 1:1.
Description: HPLC-DAD detection of benzaldehyde, Michaelis-Menten fit on PdBS
Data set [2] addresses purified recombinant Arabidopsis thaliana benzaldehyde synthase α subunit (AtBSα) (Arabidopsis thaliana).
Data set [3] has as its target purified recombinant tomato (Solanum lycopersicum) benzaldehyde synthase α subunit (SlBSα) (Solanum lycopersicum (tomato)).
The next data set deals with T1, AtBS (Arabidopsis thaliana, UniProt F4JFB8+Q9SG99).
T1 construct: gene SDRD; CDS of both subunits from flower cDNA in pMAL-c5X (MBP-tagged), E. coli; amylose resin after 1:1 mixing; heterodimer
T1 sequence (F4JFB8 1-280): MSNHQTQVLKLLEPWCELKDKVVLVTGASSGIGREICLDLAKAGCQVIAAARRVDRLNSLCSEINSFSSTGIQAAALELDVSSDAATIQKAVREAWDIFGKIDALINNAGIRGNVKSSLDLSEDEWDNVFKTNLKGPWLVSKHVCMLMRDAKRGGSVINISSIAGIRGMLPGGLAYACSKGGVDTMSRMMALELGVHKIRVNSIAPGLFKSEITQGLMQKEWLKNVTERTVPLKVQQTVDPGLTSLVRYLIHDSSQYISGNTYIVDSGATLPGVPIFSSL
T1 sequence (Q9SG99 1-266): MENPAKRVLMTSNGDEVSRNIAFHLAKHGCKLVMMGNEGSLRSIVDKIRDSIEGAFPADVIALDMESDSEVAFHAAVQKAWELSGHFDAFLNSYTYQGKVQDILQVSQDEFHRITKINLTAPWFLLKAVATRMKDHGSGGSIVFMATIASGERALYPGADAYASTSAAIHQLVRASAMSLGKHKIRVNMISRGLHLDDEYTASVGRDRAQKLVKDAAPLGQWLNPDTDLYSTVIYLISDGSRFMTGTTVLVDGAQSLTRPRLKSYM
Briefly: HPLC-DAD detection of benzaldehyde, Michaelis-Menten fit. The note with it: 4 mM NADPH; 50 mM Bis-Tris pH 6.5; 28 °C; α:β 1:1. Format: biochemical. From the text:
HPLC-DAD detection of benzaldehyde, Michaelis-Menten fit on AtBS

Data set [4] deals with purified recombinant Arabidopsis thaliana benzaldehyde synthase β subunit (AtBSβ) (Arabidopsis thaliana). The data set is described as follows: SEC; purified recombinant proteins at ~1 mg/mL on Superdex 200 Increase 10/300 GL in phosphate-buffered saline. For orientation: SEC sorts molecules by how far they enter the pores of the column.
For data set [5], the target named is purified recombinant PhBSβ (from pMAL-c5X, MBP tag) (Petunia hybrida). The description is as above.

Regarding PdBS (Prunus dulcis), in data set [1], the Km came to 629.4 ± 67.7 µM, the Vmax came out at 2.12 µmol/min/mg, the kcat worked out at 5.26 ± 0.2 s⁻¹ and the kcat/Km was found to be 8400 ± 1000 M⁻¹ s⁻¹.

Regarding “purified recombinant almond (Prunus dulcis) benzaldehyde synthase β subunit (PdBSβ) (natural protein)”, the apparent BS activity of the cross-species hybrid AtBSα-PdBSβ relative to AtBS (fold higher than AtBS) in data set [2] is 7.8. Besides, in data set [3], the apparent BS activity of the cross-species hybrid SlBSα-PdBSβ compared with SlBS (fold higher than SlBS) is 2.7.

In the case of `CC(C)(COP(=O)(O)OP(=O)(O)OC[C@H]1O[C@@H](n2cnc3c(N)ncnc32)[C@H](O)[C@@H]1OP(=O)(O)O)[C@@H](O)C(=O)NCCC(=O)NCCSC(=O)c1ccccc1` [benzoyl-CoA], the Km at AtBS was 243 ± 28.2 µM.

“purified recombinant Arabidopsis thaliana benzaldehyde synthase β subunit (AtBSβ) (natural protein)”: the stoichiometry N in data set [4] stood at 4.

For “purified recombinant tomato (Solanum lycopersicum) benzaldehyde synthase β subunit (SlBSβ) (natural protein)”, the apparent BS activity of the cross-species hybrid AtBSα-SlBSβ relative to AtBS (fold higher than AtBS) in data set [2] came to 4.6.

On to “purified recombinant PhBSβ (from pMAL-c5X, MBP tag) (natural protein)”, for which the apparent BS activity of the cross-species hybrid SlBSα-PhBSβ compared with SlBS (fold lower than SlBS) in data set [3] came out at 6.5. For the same molecule, the stoichiometry N in data set [5] came out at 4.
